The record followed here is patent US20230093708A1, “PROTEIN NANOPARTICLE DESIGN AND APPLICATION” (Duke University, priority 2020, published 2023).

A short description of series [1]: Static and dynamic light scattering (SLS/DLS) of block co-polypeptides. The following applies: for ρ: shape factor Rg/Rh. The class given is physicochemical. The procedure:
Key parameters of interest are the hydrophilicity of the corona-forming block, the hydrophilicity of the core block, the overall length of the co-polypeptide and the ratio of the two blocks. Parameters of evaluation are the size, morphology, stability, and thermoresponsive behavior. All measurements were made in 140 mM NaCl, 10 mM phosphate buffer, 3 mM KCl, pH 7.4 unless otherwise specified. Size was evaluated by the hydrodynamic radios (Rh) and radius of gyration (Rg) by dynamic light scattering (DLS) and static light scattering (SLS) respectively. Rg and Rh can be combined to yield the shape factor ρ=Rg/Rh, which provides a rough indication of the morphology of the scatterer. […] For an elongated scatterer, the shape factor depends upon the aspect ratio. A combination of temperature dependent turbidity and DLS was utilized to determine the phase behavior of the block co-polypeptides. Cryogenic transmission electron microscopy (Cryo-TEM) was utilized to evaluate the morphology and provide crucial insight into the hydration of the core/corona chains. Stability of the assembled nanostructure was determined by a shift in the I1/I3 fluorescent bands of pyrene as described previously.
Static and dynamic light scattering measurements (SLS/DLS) were performed using an ALV/CGS-3 goniometer system (Langen, Germany). Samples for the ALV/CGS-3 goniometer system were prepared at a concentration of 10 μM in PBS and filtered through 0.45 μm Millex-GV filters into a 10 mm disposable borosilicate glass tube (Fischer). Simultaneous SLS and DLS measurements were obtained at 15° C. of the ELP for angles between 30°-150° at 5° increments, with each angle consisting of 3 runs for 15 s. SLS experiments were only conducted for self-assembling block co-polypeptides, since the molecular weight of a single block co-polypeptide chain is already known, and the Rg of a single chain is likely near or below the detection limit of the SLS instrument. The differential refractive index (dn/dc) was determined by measuring the refractive index at different concentrations using an Abbemat 500 refractometer (Anton Paar, Graz, Austria). DLS data were analyzed by fitting the autocorrelation function with a cumulant fit, using the built-in ALV software. Hydrodynamic radius (Rh) was plotted against angle and extrapolated to zero. SLS data were analyzed by partial Zimm plots using ALVSTAT software in order to determine the Rg and molecular weight (MW).

Series [2] is described as follows: Cryo-TEM micelle core size, inter-core spacing and aspect ratio. The class given is physicochemical. The protocol: Using the data from FIG. 18, particularly the longest straight line of an individual particle and a corresponding perpendicular measurement were made to describe the aspect ratio of particles observed.
Cryo-TEM experiments were performed at Duke University's Shared Materials Instrumentation Facility (Durham, N.C.). Lacey holey carbon grids (Ted Pella, Redding, Calif.) were glow discharged in a PELCO EasiGlow Cleaning System (Ted Pella, Redding, Calif.). A 3 μL drop (10 μM RLPn-ELP80) was deposited onto the grid, blotted for 3 s with an offset of −3 mm, and vitrified in liquid ethane using the Vitrobot Mark III (FEI, Eindhoven, Netherlands). Prior to vitrification, the sample chamber was maintained at 15° C. and 100% relative humidity to prevent sample evaporation. Grids were transferred to a Gatan 626 cryoholder (Gatan, Pleasanton, Calif.) and imaged with a FEI Tecnai G2 Twin TEM (FEI, Eindhoven, Netherlands), operating at 80 keV. Feature sizes and spacing distances were measured in ImageJ by manual measurement of at least 25 particles.

B1: RLP60-ELPV80: RLP-ELP block co-polypeptide with Val guest residue in the corona (protein)
chain: QYPSDGRGQYPSDGRGQYPSDGRGQYPSDGRGQYPSDGRGQYPSDGRGQYPSDGRGQYPSDGRGQYPSDGRGQYPSDGRGQYPSDGRGQYPSDGRGQYPSDGRGQYPSDGRGQYPSDGRGQYPSDGRGQYPSDGRGQYPSDGRGQYPSDGRGQYPSDGRGQYPSDGRGQYPSDGRGQYPSDGRGQYPSDGRGQYPSDGRGQYPSDGRGQYPSDGRGQYPSDGRGQYPSDGRGQYPSDGRGQYPSDGRGQYPSDGRGQYPSDGRGQYPSDGRGQYPSDGRGQYPSDGRGQYPSDGRGQYPSDGRGQYPSDGRGQYPSDGRGQYPSDGRGQYPSDGRGQYPSDGRGQYPSDGRGQYPSDGRGQYPSDGRGQYPSDGRGQYPSDGRGQYPSDGRGQYPSDGRGQYPSDGRGQYPSDGRGQYPSDGRGQYPSDGRGQYPSDGRGQYPSDGRGQYPSDGRGQYPSDGRGQYPSDGRGQYPSDGRGGVGVPGVGVPGVGVPGVGVPGVGVPGVGVPGVGVPGVGVPGVGVPGVGVPGVGVPGVGVPGVGVPGVGVPGVGVPGVGVPGVGVPGVGVPGVGVPGVGVPGVGVPGVGVPGVGVPGVGVPGVGVPGVGVPGVGVPGVGVPGVGVPGVGVPGVGVPGVGVPGVGVPGVGVPGVGVPGVGVPGVGVPGVGVPGVGVPGVGVPGVGVPGVGVPGVGVPGVGVPGVGVPGVGVPGVGVPGVGVPGVGVPGVGVPGVGVPGVGVPGVGVPGVGVPGVGVPGVGVPGVGVPGVGVPGVGVPGVGVPGVGVPGVGVPGVGVPGVGVPGVGVPGVGVPGVGVPGVGVPGVGVPGVGVPGVGVPGVGVPGVGVPGVGVPGVGVPGVGVPGVGVPGVGVPGVGVPGVGVP
Turning to B1, in series [1] (Table 5, 10 μM in PBS, 15 °C), the Nagg is on record as 565, the “Rg(nm)” value is 41.3 nm and the “Rh (nm)” value is listed as 39.4 nm. Further, the ρ in series [1] (Table 5) came out at 1.0.

B2: [S]-80-[NHQ]-40: block co-polypeptide of two UCST blocks, (GRGDSPYS)80-(GRGDNPHQ)40 (protein)
chain: GRGDSPYSGRGDSPYSGRGDSPYSGRGDSPYSGRGDSPYSGRGDSPYSGRGDSPYSGRGDSPYSGRGDSPYSGRGDSPYSGRGDSPYSGRGDSPYSGRGDSPYSGRGDSPYSGRGDSPYSGRGDSPYSGRGDSPYSGRGDSPYSGRGDSPYSGRGDSPYSGRGDSPYSGRGDSPYSGRGDSPYSGRGDSPYSGRGDSPYSGRGDSPYSGRGDSPYSGRGDSPYSGRGDSPYSGRGDSPYSGRGDSPYSGRGDSPYSGRGDSPYSGRGDSPYSGRGDSPYSGRGDSPYSGRGDSPYSGRGDSPYSGRGDSPYSGRGDSPYSGRGDSPYSGRGDSPYSGRGDSPYSGRGDSPYSGRGDSPYSGRGDSPYSGRGDSPYSGRGDSPYSGRGDSPYSGRGDSPYSGRGDSPYSGRGDSPYSGRGDSPYSGRGDSPYSGRGDSPYSGRGDSPYSGRGDSPYSGRGDSPYSGRGDSPYSGRGDSPYSGRGDSPYSGRGDSPYSGRGDSPYSGRGDSPYSGRGDSPYSGRGDSPYSGRGDSPYSGRGDSPYSGRGDSPYSGRGDSPYSGRGDSPYSGRGDSPYSGRGDSPYSGRGDSPYSGRGDSPYSGRGDSPYSGRGDSPYSGRGDSPYSGRGDSPYSGRGDSPYSGRGDNPHQGRGDNPHQGRGDNPHQGRGDNPHQGRGDNPHQGRGDNPHQGRGDNPHQGRGDNPHQGRGDNPHQGRGDNPHQGRGDNPHQGRGDNPHQGRGDNPHQGRGDNPHQGRGDNPHQGRGDNPHQGRGDNPHQGRGDNPHQGRGDNPHQGRGDNPHQGRGDNPHQGRGDNPHQGRGDNPHQGRGDNPHQGRGDNPHQGRGDNPHQGRGDNPHQGRGDNPHQGRGDNPHQGRGDNPHQGRGDNPHQGRGDNPHQGRGDNPHQGRGDNPHQGRGDNPHQGRGDNPHQGRGDNPHQGRGDNPHQGRGDNPHQGRGDNPHQ
On to B2, for which the “Rh (nm)” value in series [1] (Table 9, UCST-UCST block co-polypeptides) was determined as 7.0 nm.

B3: RLP60-ELP80: RLP-ELP block co-polypeptide, 60 core and 80 corona repeats (protein)
chain: QYPSDGRGQYPSDGRGQYPSDGRGQYPSDGRGQYPSDGRGQYPSDGRGQYPSDGRGQYPSDGRGQYPSDGRGQYPSDGRGQYPSDGRGQYPSDGRGQYPSDGRGQYPSDGRGQYPSDGRGQYPSDGRGQYPSDGRGQYPSDGRGQYPSDGRGQYPSDGRGQYPSDGRGQYPSDGRGQYPSDGRGQYPSDGRGQYPSDGRGQYPSDGRGQYPSDGRGQYPSDGRGQYPSDGRGQYPSDGRGQYPSDGRGQYPSDGRGQYPSDGRGQYPSDGRGQYPSDGRGQYPSDGRGQYPSDGRGQYPSDGRGQYPSDGRGQYPSDGRGQYPSDGRGQYPSDGRGQYPSDGRGQYPSDGRGQYPSDGRGQYPSDGRGQYPSDGRGQYPSDGRGQYPSDGRGQYPSDGRGQYPSDGRGQYPSDGRGQYPSDGRGQYPSDGRGQYPSDGRGQYPSDGRGQYPSDGRGQYPSDGRGQYPSDGRGQYPSDGRGGAGVPGGGVPGAGVPGGGVPGAGVPGGGVPGAGVPGGGVPGAGVPGGGVPGAGVPGGGVPGAGVPGGGVPGAGVPGGGVPGAGVPGGGVPGAGVPGGGVPGAGVPGGGVPGAGVPGGGVPGAGVPGGGVPGAGVPGGGVPGAGVPGGGVPGAGVPGGGVPGAGVPGGGVPGAGVPGGGVPGAGVPGGGVPGAGVPGGGVPGAGVPGGGVPGAGVPGGGVPGAGVPGGGVPGAGVPGGGVPGAGVPGGGVPGAGVPGGGVPGAGVPGGGVPGAGVPGGGVPGAGVPGGGVPGAGVPGGGVPGAGVPGGGVPGAGVPGGGVPGAGVPGGGVPGAGVPGGGVPGAGVPGGGVPGAGVPGGGVPGAGVPGGGVPGAGVPGGGVPGAGVPGGGVPGAGVPGGGVP
On to B3, for which, in series [1] (Table 1, 10 μM in PBS, 15 °C), the Nagg came to 231, the “Rg(nm)” value was found to be 23.8 nm and the “Rh (nm)” value was 36.7 nm. Besides, the ρ in series [1] (Table 1) is 0.65. Moreover, in series [2], the “core radius (cryo-TEM)” value is on record as ~17.5 nm and the “spacing between particle cores (cryo-TEM)” value is given as 29.5 nm. Moreover, the “Spacing (nm)” value in series [2] (Table 2, inter-core spacing, mean ± standard deviation) was determined as 28.9 ± 5.1 nm. Also, the “Core radius (nm)” value in series [2] (Table 2, mean ± standard deviation, 10 μM in 140 mM PBS) is 17.5 ± 2.7 nm.

B4: RLP20-ELP40: RLP-ELP block co-polypeptide, (QYPSDGRG)20-(VPG[A:G]G)40 (protein)
chain: QYPSDGRGQYPSDGRGQYPSDGRGQYPSDGRGQYPSDGRGQYPSDGRGQYPSDGRGQYPSDGRGQYPSDGRGQYPSDGRGQYPSDGRGQYPSDGRGQYPSDGRGQYPSDGRGQYPSDGRGQYPSDGRGQYPSDGRGQYPSDGRGQYPSDGRGQYPSDGRGGAGVPGGGVPGAGVPGGGVPGAGVPGGGVPGAGVPGGGVPGAGVPGGGVPGAGVPGGGVPGAGVPGGGVPGAGVPGGGVPGAGVPGGGVPGAGVPGGGVPGAGVPGGGVPGAGVPGGGVPGAGVPGGGVPGAGVPGGGVPGAGVPGGGVPGAGVPGGGVPGAGVPGGGVPGAGVPGGGVPGAGVPGGGVPGAGVPGGGVP
For the molecule B4, the “hydrodynamic radius (Rh)” value in series [1] stood at 5.3 nm. The “Rh (nm)” value in series [1] (Table 3, 10 μM in PBS, 15 °C) is recorded as 5.3 nm.

B5: RLP60-ELPS80: RLP-ELP block co-polypeptide with Ser guest residue in the corona (protein)
chain: QYPSDGRGQYPSDGRGQYPSDGRGQYPSDGRGQYPSDGRGQYPSDGRGQYPSDGRGQYPSDGRGQYPSDGRGQYPSDGRGQYPSDGRGQYPSDGRGQYPSDGRGQYPSDGRGQYPSDGRGQYPSDGRGQYPSDGRGQYPSDGRGQYPSDGRGQYPSDGRGQYPSDGRGQYPSDGRGQYPSDGRGQYPSDGRGQYPSDGRGQYPSDGRGQYPSDGRGQYPSDGRGQYPSDGRGQYPSDGRGQYPSDGRGQYPSDGRGQYPSDGRGQYPSDGRGQYPSDGRGQYPSDGRGQYPSDGRGQYPSDGRGQYPSDGRGQYPSDGRGQYPSDGRGQYPSDGRGQYPSDGRGQYPSDGRGQYPSDGRGQYPSDGRGQYPSDGRGQYPSDGRGQYPSDGRGQYPSDGRGQYPSDGRGQYPSDGRGQYPSDGRGQYPSDGRGQYPSDGRGQYPSDGRGQYPSDGRGQYPSDGRGQYPSDGRGQYPSDGRGGSGVPGSGVPGSGVPGSGVPGSGVPGSGVPGSGVPGSGVPGSGVPGSGVPGSGVPGSGVPGSGVPGSGVPGSGVPGSGVPGSGVPGSGVPGSGVPGSGVPGSGVPGSGVPGSGVPGSGVPGSGVPGSGVPGSGVPGSGVPGSGVPGSGVPGSGVPGSGVPGSGVPGSGVPGSGVPGSGVPGSGVPGSGVPGSGVPGSGVPGSGVPGSGVPGSGVPGSGVPGSGVPGSGVPGSGVPGSGVPGSGVPGSGVPGSGVPGSGVPGSGVPGSGVPGSGVPGSGVPGSGVPGSGVPGSGVPGSGVPGSGVPGSGVPGSGVPGSGVPGSGVPGSGVPGSGVPGSGVPGSGVPGSGVPGSGVPGSGVPGSGVPGSGVPGSGVPGSGVPGSGVPGSGVPGSGVPGSGVP
Turning to B5, in series [1] (Table 5, 10 μM in PBS, 15 °C), the Nagg is 244, the “Rg(nm)” value is on record as 27.5 nm and the “Rh (nm)” value was 43.5 nm. The ρ in series [1] (Table 5) came to 0.6.
